Patent publication US7247703

molecular target: HLA-A2.1 class I MHC molecule on T2 cells (human); assay: T2 class I MHC stabilization assay, anti-HLA-A2 immunofluorescent staining, peptide vs medium alone; conditions: remark: other sources report otherwise

| Binder | % Increase of class I stabilization on T2 [%] |
| --- | --- |
| TLSPGKNGV [p 1172-1180 HER-2/neu peptide …] | 10 |
| HLYQGCQVV [p 48-56 HER-2/neu peptide …] | 20 |
| CLTSTVQLV [p 789-797 HER-2/neu peptide …] | 20 |
